This data set concerns Escherichia coli TOP10. Description: shrunken log2 fold change of peptide-encoding DNA abundance (4.5 h post-induction vs induction); higher = less antimicrobial activity (less host growth inhibition). Conditions: time post-induction: 4.5 h; library: site-saturation at positions 5, 18, 19, 20.
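Also: peptides expressed intracellularly from a pBAD plasmid library in pooled LB shake-flask culture, induced with 0.3% L-arabinose, DNA abundance read by NGS, three biological replicates, DESeq2 with apeglm shrinkage.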

Consider RRIRERPPRLPRPRPRPTALPRP, for which the “shrunken log2 fold change” value is -0.415.
As for RRIRYRPPRLPRPRPRPSITPRP, the “shrunken log2 fold change” value was -0.857.
As for RRIRYRPPRLPRPRPRPFHIPRP, the “shrunken log2 fold change” value was -0.24.
RRIRARPPRLPRPRPRPYQVPRP: the “shrunken log2 fold change” value was -0.327.
Turning to RRIRFRPPRLPRPRPRPLVIPRP, the “shrunken log2 fold change” value was -0.78.
To RRIRERPPRLPRPRPRPLMHPRP belongs -0.231; to RRIRLRPPRLPRPRPRPCVTPRP, -0.498.
Under RRIRHRPPRLPRPRPRPHSTPRP stands -0.349; under RRIRNRPPRLPRPRPRPMNYPRP, -0.00918.
Under RRIRRRPPRLPRPRPRPRITPRP stands 0.186; under RRIRHRPPRLPRPRPRPMWSPRP, -0.209.
As to RRIRIRPPRLPRPRPRPWKPPRP, the “shrunken log2 fold change” value is -0.093.
Turning to RRIRSRPPRLPRPRPRPQGVPRP, the “shrunken log2 fold change” value came out at 0.225.
Consider RRIRFRPPRLPRPRPRPTTGPRP, for which the “shrunken log2 fold change” value is -0.0819.
To RRIRKRPPRLPRPRPRPRGFPRP belongs 0.18; to RRIRNRPPRLPRPRPRPNREPRP, 0.00564.
Take RRIRQRPPRLPRPRPRPIQIPRP: the “shrunken log2 fold change” value is -0.105.
On to RRIRVRPPRLPRPRPRPWKSPRP, for which the “shrunken log2 fold change” value was 0.0332.
Regarding RRIRPRPPRLPRPRPRPSWVPRP, the “shrunken log2 fold change” value was determined as 0.0466.
As to RRIRDRPPRLPRPRPRPHTGPRP, the “shrunken log2 fold change” value was -0.0359.
Under RRIRKRPPRLPRPRPRPMTIPRP stands -0.191; under RRIRPRPPRLPRPRPRPRKQPRP, 0.0406; under RRIRVRPPRLPRPRPRPLVVPRP, -0.21.
Under RRIRTRPPRLPRPRPRPRVQPRP stands -0.2; under RRIRARPPRLPRPRPRPVTDPRP, -0.0398; under RRIRVRPPRLPRPRPRPTMPPRP, 0.24.
To RRIRTRPPRLPRPRPRPNKQPRP belongs -0.207; to RRIRLRPPRLPRPRPRPHKWPRP, -0.0343.
Consider RRIRDRPPRLPRPRPRPMSSPRP, for which the “shrunken log2 fold change” value worked out at 0.0508.
To RRIRLRPPRLPRPRPRPGMVPRP belongs -0.0517.
Regarding RRIRVRPPRLPRPRPRPLNDPRP, the “shrunken log2 fold change” value amounted to 0.171.
To RRIRARPPRLPRPRPRPIAVPRP belongs 0.166; to RRIRCRPPRLPRPRPRPEGNPRP, -0.0225; to RRIRERPPRLPRPRPRPACSPRP, 0.115.
To RRIRWRPPRLPRPRPRPRRMPRP belongs 0.215; to RRIRERPPRLPRPRPRPTPCPRP, 0.0922.
Regarding RRIRWRPPRLPRPRPRPAMHPRP, the “shrunken log2 fold change” value came to 0.341.
Regarding RRIRHRPPRLPRPRPRPFPSPRP, the “shrunken log2 fold change” value is 0.0517.
As for RRIRQRPPRLPRPRPRPTAMPRP, the “shrunken log2 fold change” value turned out to be 0.0174.
Under RRIRSRPPRLPRPRPRPPRGPRP stands 0.638; under RRIRIRPPRLPRPRPRPKRPPRP, 0.449.
To RRIRTRPPRLPRPRPRPTHAPRP belongs 4.04; to RRIRPRPPRLPRPRPRPIWPPRP, 0.302; to RRIRLRPPRLPRPRPRPLRYPRP, -0.0797.
To RRIRARPPRLPRPRPRPISIPRP belongs -0.439.
Consider RRIRKRPPRLPRPRPRPDNKPRP, for which the “shrunken log2 fold change” value was -0.119.
Turning to RRIRIRPPRLPRPRPRPMPWPRP, the “shrunken log2 fold change” value stood at 0.306.
Consider RRIRDRPPRLPRPRPRPVRVPRP, for which the “shrunken log2 fold change” value is 0.908.
To RRIRRRPPRLPRPRPRPEKAPRP belongs 0.0304.
In the case of RRIRVRPPRLPRPRPRPADNPRP, the “shrunken log2 fold change” value is -0.0365.
Regarding RRIRDRPPRLPRPRPRPTCEPRP, the “shrunken log2 fold change” value turned out to be 0.705.
As to RRIRDRPPRLPRPRPRPQWTPRP, the “shrunken log2 fold change” value was 0.448.
To RRIRRRPPRLPRPRPRPPNSPRP belongs -0.0871; to RRIRLRPPRLPRPRPRPLELPRP, -0.0406.
For RRIRHRPPRLPRPRPRPYVMPRP, the “shrunken log2 fold change” value was 0.0288.
Under RRIRKRPPRLPRPRPRPCRNPRP stands -0.0611; under RRIRRRPPRLPRPRPRPVGMPRP, 1.08.
To RRIRDRPPRLPRPRPRPFCSPRP belongs 0.217.
Take RRIRWRPPRLPRPRPRPQYDPRP: the “shrunken log2 fold change” value is -0.212.
Under RRIRNRPPRLPRPRPRPVDTPRP stands 0.033; under RRIRLRPPRLPRPRPRPAVTPRP, -0.0968; under RRIRARPPRLPRPRPRPNPYPRP, -0.115.
As for RRIRARPPRLPRPRPRPTDDPRP, the “shrunken log2 fold change” value stood at 0.332.
To RRIRTRPPRLPRPRPRPHGEPRP belongs 0.16; to RRIRGRPPRLPRPRPRPSSQPRP, 0.099; to RRIRFRPPRLPRPRPRPKMFPRP, -0.323.
Under RRIRERPPRLPRPRPRPECFPRP stands 0.435; under RRIRERPPRLPRPRPRPEHEPRP, -0.0139; under RRIRIRPPRLPRPRPRPACHPRP, -0.12.
Under RRIRFRPPRLPRPRPRPIRMPRP stands -0.191; under RRIRARPPRLPRPRPRPVYAPRP, 0.205.
As for RRIRDRPPRLPRPRPRPVAMPRP, the “shrunken log2 fold change” value stood at 0.633.
To RRIRNRPPRLPRPRPRPEACPRP belongs 0.0475.
To RRIRDRPPRLPRPRPRPPNGPRP belongs 0.0163; to RRIRQRPPRLPRPRPRPYWCPRP, -0.164.
Turning to RRIRDRPPRLPRPRPRPIQAPRP, the “shrunken log2 fold change” value worked out at 0.119.
To RRIRIRPPRLPRPRPRPRMQPRP belongs -0.199.
Under RRIRFRPPRLPRPRPRPACQPRP stands -0.0497; under RRIRNRPPRLPRPRPRPHAYPRP, 0.00658.
Under RRIRNRPPRLPRPRPRPETCPRP stands 0.262; under RRIRIRPPRLPRPRPRPVRIPRP, 0.154.
With RRIRVRPPRLPRPRPRPCDAPRP, the “shrunken log2 fold change” value came out at 0.121.
Consider RRIRGRPPRLPRPRPRPLARPRP, for which the “shrunken log2 fold change” value came out at 0.91.
For the sequence RRIRLRPPRLPRPRPRPMEIPRP, the “shrunken log2 fold change” value was -0.00427.
Regarding RRIRNRPPRLPRPRPRPFYVPRP, the “shrunken log2 fold change” value was -0.181.
In the case of RRIRVRPPRLPRPRPRPVVMPRP, the “shrunken log2 fold change” value is -0.271.
For RRIRQRPPRLPRPRPRPTPWPRP, the “shrunken log2 fold change” value is 0.619.
Under RRIRGRPPRLPRPRPRPMIKPRP stands 2.22.
Under RRIRGRPPRLPRPRPRPAIWPRP stands 0.396.
As to RRIRQRPPRLPRPRPRPYYQPRP, the “shrunken log2 fold change” value is -0.284.
Under RRIRYRPPRLPRPRPRPIENPRP stands -0.0122; under RRIRMRPPRLPRPRPRPDVHPRP, 0.109; under RRIRRRPPRLPRPRPRPSSIPRP, -0.485.
In the case of RRIRGRPPRLPRPRPRPSGPPRP, the “shrunken log2 fold change” value was -0.0342.
Under RRIRWRPPRLPRPRPRPNIDPRP stands -0.21.
To RRIRQRPPRLPRPRPRPKNAPRP belongs 0.0178; to RRIRLRPPRLPRPRPRPIFRPRP, 0.00696.
Under RRIRHRPPRLPRPRPRPRSLPRP stands 0.295; under RRIRTRPPRLPRPRPRPGHWPRP, 0.0708.
On to RRIRIRPPRLPRPRPRPAIRPRP, for which the “shrunken log2 fold change” value is -0.161.
In the case of RRIRERPPRLPRPRPRPCSPPRP, the “shrunken log2 fold change” value is -0.286.
Under RRIRGRPPRLPRPRPRPYGSPRP stands -0.303; under RRIRGRPPRLPRPRPRPRRDPRP, 0.424; under RRIRPRPPRLPRPRPRPHPYPRP, -0.576.
Take RRIRQRPPRLPRPRPRPSHKPRP: the “shrunken log2 fold change” value was -0.0927.
To RRIRPRPPRLPRPRPRPKCDPRP belongs -0.314; to RRIRLRPPRLPRPRPRPCCIPRP, -0.0547.
Take RRIRHRPPRLPRPRPRPSRGPRP: the “shrunken log2 fold change” value is -0.0716.
Regarding RRIRYRPPRLPRPRPRPAKHPRP, the “shrunken log2 fold change” value was -0.912.
Under RRIRWRPPRLPRPRPRPVGPPRP stands 0.281; under RRIRLRPPRLPRPRPRPQPYPRP, -0.487; under RRIRIRPPRLPRPRPRPVSQPRP, -0.0669.
As to RRIRIRPPRLPRPRPRPPYSPRP, the “shrunken log2 fold change” value came to 0.0677.
RRIRERPPRLPRPRPRPQVWPRP: the “shrunken log2 fold change” value is -0.0702.
In the case of RRIRQRPPRLPRPRPRPCRCPRP, the “shrunken log2 fold change” value is -0.0134.
For RRIRQRPPRLPRPRPRPMFCPRP, the “shrunken log2 fold change” value stood at 0.0313.
RRIRARPPRLPRPRPRPAWQPRP: the “shrunken log2 fold change” value was 0.626.
Under RRIRSRPPRLPRPRPRPAQRPRP stands 0.105; under RRIRWRPPRLPRPRPRPMTSPRP, 0.0704.
Under RRIRARPPRLPRPRPRPISWPRP stands 0.508; under RRIRARPPRLPRPRPRPFKRPRP, 0.0331; under RRIRYRPPRLPRPRPRPLSHPRP, -0.678.
Under RRIRQRPPRLPRPRPRPFGLPRP stands -0.131; under RRIRMRPPRLPRPRPRPENLPRP, -0.00111; under RRIRARPPRLPRPRPRPKAQPRP, 1.26.

Values taken from the supplement of paper PMC9112550, “Optimization of the antimicrobial peptide Bac7 by deep mutational scanning” (BMC Biology, 2022).
